# Measurements: PMC2732903
# T1: Topoisomerase IIIα (Topo III) (human, UniProt Q13472 1-1001)
# T1 sequence: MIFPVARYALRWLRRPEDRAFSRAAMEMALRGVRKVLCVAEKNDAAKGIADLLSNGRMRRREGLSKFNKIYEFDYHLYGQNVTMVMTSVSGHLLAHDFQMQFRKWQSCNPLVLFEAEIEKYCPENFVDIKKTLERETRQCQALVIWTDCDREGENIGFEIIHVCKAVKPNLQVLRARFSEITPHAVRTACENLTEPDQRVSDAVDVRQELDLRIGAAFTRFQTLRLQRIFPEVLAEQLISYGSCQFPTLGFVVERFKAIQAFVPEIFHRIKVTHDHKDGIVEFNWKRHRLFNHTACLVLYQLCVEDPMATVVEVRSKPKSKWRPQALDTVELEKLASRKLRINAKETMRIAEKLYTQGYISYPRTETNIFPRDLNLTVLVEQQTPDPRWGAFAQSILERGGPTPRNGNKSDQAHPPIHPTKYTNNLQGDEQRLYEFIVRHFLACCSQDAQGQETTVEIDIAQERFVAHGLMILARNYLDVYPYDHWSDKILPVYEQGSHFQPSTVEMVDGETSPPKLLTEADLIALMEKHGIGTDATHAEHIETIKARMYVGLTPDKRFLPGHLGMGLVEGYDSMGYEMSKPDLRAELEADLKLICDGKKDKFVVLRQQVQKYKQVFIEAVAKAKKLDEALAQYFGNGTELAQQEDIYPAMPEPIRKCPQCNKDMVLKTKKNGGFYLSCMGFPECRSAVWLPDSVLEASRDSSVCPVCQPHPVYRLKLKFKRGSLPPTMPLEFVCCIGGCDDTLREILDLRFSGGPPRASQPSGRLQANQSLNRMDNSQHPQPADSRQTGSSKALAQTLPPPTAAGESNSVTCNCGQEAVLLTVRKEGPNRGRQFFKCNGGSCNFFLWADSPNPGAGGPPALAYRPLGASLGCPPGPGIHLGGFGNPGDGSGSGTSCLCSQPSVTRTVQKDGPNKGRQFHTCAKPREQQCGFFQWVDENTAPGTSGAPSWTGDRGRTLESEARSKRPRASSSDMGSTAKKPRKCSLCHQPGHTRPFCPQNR
# T2: hPOT1 (human, UniProt Q9NUX5 1-634)
# T2 sequence: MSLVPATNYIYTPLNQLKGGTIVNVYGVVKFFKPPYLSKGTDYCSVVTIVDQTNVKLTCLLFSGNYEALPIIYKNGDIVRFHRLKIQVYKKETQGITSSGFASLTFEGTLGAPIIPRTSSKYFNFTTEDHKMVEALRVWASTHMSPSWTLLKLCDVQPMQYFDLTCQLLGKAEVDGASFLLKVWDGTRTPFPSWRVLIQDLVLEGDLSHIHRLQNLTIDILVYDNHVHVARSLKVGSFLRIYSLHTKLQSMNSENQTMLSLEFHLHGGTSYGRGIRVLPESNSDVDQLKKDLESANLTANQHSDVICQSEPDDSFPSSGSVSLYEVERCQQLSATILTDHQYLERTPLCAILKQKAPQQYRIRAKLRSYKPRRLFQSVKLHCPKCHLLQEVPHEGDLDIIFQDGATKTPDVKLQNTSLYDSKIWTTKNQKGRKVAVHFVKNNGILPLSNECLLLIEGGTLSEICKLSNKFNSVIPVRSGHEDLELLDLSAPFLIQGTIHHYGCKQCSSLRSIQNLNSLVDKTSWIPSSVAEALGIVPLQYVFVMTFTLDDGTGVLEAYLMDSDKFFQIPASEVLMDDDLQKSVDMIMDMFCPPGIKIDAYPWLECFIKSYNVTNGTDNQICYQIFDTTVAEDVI
# Experiments:
# [1] = system: Wt26 (DNA, G4) TTAGGGTTAGGGTTAGGGTTAGGGTT; assay: EMSA, inhibition of hPOT1 binding; conditions: 100 mM NaCl; 50 mM HEPES pH 7.9, room temperature; 30 nM hPOT1 displaced; 20 nM DNA; indirect
# [2] = system: Wt26 (DNA, G4) TTAGGGTTAGGGTTAGGGTTAGGGTT; assay: EMSA, inhibition of Topo IIIα binding; conditions: 100 mM NaCl; 50 mM HEPES pH 7.9, room temperature; 50 nM Topo IIIα displaced; 20 nM DNA; indirect
# [3] = system: 21G (DNA, G4) GGGTTAGGGTTAGGGTTAGGG; assay: EMSA, inhibition of Topo IIIα binding; conditions: 100 mM NaCl; 50 mM HEPES pH 7.9, room temperature; 50 nM Topo IIIα displaced; 20 nM DNA; indirect
# [4] = system: 21Gmu (21G mu3) (DNA, single strand) GGCTTACGGTTAGCGTTAGGG; assay: EMSA, inhibition of Topo IIIα binding; conditions: 100 mM NaCl; 50 mM HEPES pH 7.9, room temperature; 50 nM Topo IIIα displaced; 20 nM DNA; indirect
# [5] = system: S310 (DNA, single strand) CCAGCTCTGCTTTGCATCTTT; assay: EMSA, inhibition of Topo IIIα binding; conditions: 100 mM NaCl; 50 mM HEPES pH 7.9, room temperature; 50 nM Topo IIIα; 20 nM DNA; up to 10 µM telomestatin; indirect
# [6] = target: T1, Topoisomerase IIIα (Topo III); assay: EMSA; no ligand; probe 20 nM, Topo III 50 nM; 50 mM HEPES pH 7.9, 100 mM NaCl, 0.1 mM EDTA, 4% sucrose, 2% glycerol, 0.1 mg/mL BSA, 0.02% bromophenol blue, 20 nM probe, room temperature 30 min; 1% agarose; conditions: protein: recombinant; label: 32P; single strand
# [7] = target: T1, Topoisomerase IIIα (Topo III); assay: competition; unlabelled competitor vs 32P-24C; more potent than Pu22myc; non-G4 IC50s 4.3-10.1-fold lower than G4 oligos overall; 50 mM HEPES pH 7.9, 100 mM NaCl, 0.1 mM EDTA, 4% sucrose, 2% glycerol, 0.1 mg/mL BSA, 0.02% bromophenol blue, 20 nM probe, room temperature 30 min; 1% agarose; conditions: protein: recombinant; single strand, cannot form G4
# [8] = target: T1, Topoisomerase IIIα (Topo III); assay: EMSA; no telomestatin; 50 mM HEPES pH 7.9, 100 mM NaCl, 0.1 mM EDTA, 4% sucrose, 2% glycerol, 0.1 mg/mL BSA, 0.02% bromophenol blue, 20 nM probe, room temperature 30 min; 1% agarose; conditions: protein: recombinant
# [9] = target: T1, Topoisomerase IIIα (Topo III); assay: competition; unlabelled competitor vs 32P-24C (20 nM), Topo III 50 nM; 50 mM HEPES pH 7.9, 100 mM NaCl, 0.1 mM EDTA, 4% sucrose, 2% glycerol, 0.1 mg/mL BSA, 0.02% bromophenol blue, 20 nM probe, room temperature 30 min; 1% agarose; conditions: protein: recombinant; G4-forming
# hPOT1 = target: T2, hPOT1; assay: EMSA; no telomestatin; POT1 30 nM, probe 20 nM; 50 mM HEPES pH 7.9, 100 mM NaCl, 0.1 mM EDTA, 4% sucrose, 2% glycerol, 0.1 mg/mL BSA, 0.02% bromophenol blue, 20 nM probe, room temperature 30 min; 1% agarose; conditions: protein: recombinant; label: 32P; G4-forming
molecule,measurement,setting,value
Cc1oc2nc1-c1nc(co1)-c1nc(co1)-c1nc(co1)-c1nc(co1)-c1nc(co1)C1=NC(CS1)c1nc-2c(C)o1 (stereo not shown),IC50,[1],100 nM
same,IC50,[2],60 nM
same,IC50,[3],300 nM
same,IC50,[4],> 10 µM
same,binding,[5],no
CCCTAACCCTAACCCTAACCCTAA (ssDNA) [24C],binding result,[6],binds
GAGGGTGAAGAGGGTGGGGAAG (ssDNA) [Pu22mu],binding result,[7],binds
GGGTTAGGGTTAGGGTTAGGG (structured_DNA) [21G],binding result,"[8]; label: 32P when used as probe, G4-forming",binds
GAGGGTGGGGAGGGTGGGGAAG (structured_DNA) [Pu22myc],binding signal,[9],~3 fold higher concentration than Pu22mu needed to inhibit binding
TTAGGGTTAGGGTTAGGGTTAGGGTT (structured_DNA) [Wt26],binding result,"[8]; label: 32P, G4-forming",binds
same,binding result,hPOT1,binds
CCAGCTCTGCTTTGCATCTTT (ssDNA) [S310],binding result,[8]; label: 32P,binds
GGCTTACGGTTAGCGTTAGGG (ssDNA) [21G mu3 (21Gmu)],binding result,"[8]; label: 32P when used as probe, single strand, cannot form G4",binds
